Results published in patent US7125969, “ETS-related gene overexpressed in human breast and epithelial cancers” (The Regents of the University of California).
Positions count from the first letter of the chain named.

B1: TA5 WT (HER2/neu promoter -50 to -20) (dsDNA)
DNA 1: GGAGGAGGGCTGCTTGAGGAAGTATAAGAAT
DNA 2: ATTCTTATACTTCCTCAAGCAGCCCTCCTCC
B2: TA5 m1 (dsDNA)
DNA 1: B1 DNA 1 with G9T, C10A
DNA 2: B1 DNA 2 with G22T, C23A
B3: TA5 m2 (dsDNA)
DNA 1: B1 DNA 1 with A17C
DNA 2: B1 DNA 2 with T15G
B4: TA5 m3 (dsDNA)
DNA 1: B1 DNA 1 with G19A, A20G
DNA 2: B1 DNA 2 with T12C, C13T
B5: TA5 m4 (dsDNA)
DNA 1: B1 DNA 1 with G18C, G19C
DNA 2: B1 DNA 2 with C13G, C14G
B6: TA5 m5 (dsDNA)
DNA 1: B1 DNA 1 with T23C
DNA 2: B1 DNA 2 with A9G

Columns and labels:
[1] = target: T1, ESX (271-371, ETS DNA-binding domain) (Homo sapiens, UniProt P78545 SEQ:271-371); assay: EMSA; affinity comparable to full-length; settings: label: end-labeled
T1 sequence: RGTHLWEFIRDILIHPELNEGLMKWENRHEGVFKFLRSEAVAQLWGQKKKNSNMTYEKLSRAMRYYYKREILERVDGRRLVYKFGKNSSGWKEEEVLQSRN

[2] = target: T2, ESX (full-length, His-tagged) (Homo sapiens, UniProt P78545 SEQ:1-371); assay: EMSA; high-affinity sequence-specific; ~1 ng protein, 0.3 pmol probe; settings: tags: His-tag (pRSETA), E. coli BL21(DE3)pLysS; label: end-labeled
T2 sequence: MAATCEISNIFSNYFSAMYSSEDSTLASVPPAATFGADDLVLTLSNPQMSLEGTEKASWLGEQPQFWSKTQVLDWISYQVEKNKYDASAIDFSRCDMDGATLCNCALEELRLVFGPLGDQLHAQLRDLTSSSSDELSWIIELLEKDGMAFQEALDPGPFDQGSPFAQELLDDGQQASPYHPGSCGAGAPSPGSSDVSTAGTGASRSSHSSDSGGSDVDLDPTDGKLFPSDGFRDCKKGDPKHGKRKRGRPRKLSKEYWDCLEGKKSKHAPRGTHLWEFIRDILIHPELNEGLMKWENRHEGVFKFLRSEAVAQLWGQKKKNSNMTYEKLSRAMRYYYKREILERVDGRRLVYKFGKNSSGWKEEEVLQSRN
Protocol: (§1) Electrophoretic mobility shift assay (EMSA) was performed as previously described (Scott et al. (1994) *J. Biol. Chem.* 269: 19848–19858), using approximately one ng of ESX protein per condition and 0.3 pmol of end-labeled TA5 probe (+cold competitor). TA5 is a duplexed 31-mer oligonucleotide from the HER2/neu promoter, extending from −50 bp to −20 bp relative to the major transcriptional start site, that includes an Ets response element.

[3] = target: T2, ESX (full-length, His-tagged); assay: competition; flanking mutation; relatively effective cold competitor at 50-fold excess; settings: tags: His-tag (pRSETA), E. coli BL21(DE3)pLysS
Protocol: (§2) Five different competing unlabeled (cold) oligonucleotides containing specific mutations in the wild-type (WT) TA5 (SEQ ID NO:32) sequence, m1–m5 (SEQ ID NOs:33–37) were added at 50-fold molar excess; gel lanes containing the excess cold competitors are labeled. […] The antisense strand sequence as shown (~40 bp to ~26 bp upstream of major transcriptional start site in HER2/neu promoter) is marked with asterisk at the hypersensitivity site within Ets response element (GGAA on sense strand). FIGS. 8c and 8d show the induction of CAT activity from two different ETS-responsive reporter constructs (p3TA5-BLCAT5, pHER2-CAT) in COS cells cotransfected with an ESX expression plasmid (pcDNAI-ESX). Mutant reporter plasmids (p3TA5P-BLCAT5, pHER2m-CAT) are identical to their normal counterparts except for alterations in the Ets response element within the TA5 sequence (GGAA to GAGA and GGAA to TTAA, respectively).
as §1

[4] = target: T2, ESX (full-length, His-tagged); assay: competition; GGAA core mutation; fails to compete at 50-fold excess; settings: tags: His-tag (pRSETA), E. coli BL21(DE3)pLysS
Protocol: as §2, §1

Row | Binder | binding result [3] | binding result [4] | other results
1 | B1 |  |  | binding result [1]: binds; binding result [2]: binds
2 | B2 | binds |  | 
3 | B3 | binds |  | 
4 | B4 |  | no binding | 
5 | B5 |  | no binding | 
6 | B6 | binds |  | 
